One data set addresses T1, GroEL (Escherichia coli MG1655, UniProt P0A6F5 1-548).
T1 construct: GroEL of Escherichia coli MG1655; synthetic construct based on the GroEL gene, in a pET-15b vector; also called GroEL-ATP; GroEL-(ADP); source: E. coli BL21, purified (ammonium sulfate cuts, Source Q15 anion exchange, Superose gel filtration); copies: 14
Put plainly: cryo-EM structure; steady state continuous turnover reference, conventional plunger at around 20 s after the start of the reaction; GroEL (3.7 mg/ml) mixed with GroES (0.7 mg/ml), ATP (2 mM), CHAPS (0.1 %); 22 °C; fractions of complexes from 3D classification of particles. Particulars: both partners purified.

Data set [1] deals with the molecule itself. The description is as above.

T1 sequence (P0A6F5 whole entry): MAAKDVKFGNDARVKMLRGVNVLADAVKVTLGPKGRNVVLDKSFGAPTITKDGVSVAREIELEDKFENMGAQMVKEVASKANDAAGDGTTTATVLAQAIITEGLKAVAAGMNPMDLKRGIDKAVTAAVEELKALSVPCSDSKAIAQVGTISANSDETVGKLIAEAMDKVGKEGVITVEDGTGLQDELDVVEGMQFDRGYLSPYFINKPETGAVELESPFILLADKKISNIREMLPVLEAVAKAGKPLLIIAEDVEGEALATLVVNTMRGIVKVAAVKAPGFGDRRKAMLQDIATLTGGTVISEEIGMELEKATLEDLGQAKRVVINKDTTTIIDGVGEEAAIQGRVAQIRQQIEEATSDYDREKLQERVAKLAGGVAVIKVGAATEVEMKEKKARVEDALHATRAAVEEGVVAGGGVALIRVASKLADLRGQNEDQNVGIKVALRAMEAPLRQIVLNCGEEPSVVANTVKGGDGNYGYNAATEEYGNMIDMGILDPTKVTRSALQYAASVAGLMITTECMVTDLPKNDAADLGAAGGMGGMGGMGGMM

B1: GroES (natural protein, Escherichia coli MG1655, UniProt P0A6F9 1-97, looked up)
chain: MNIRPLHDRVIVKRKEVETKSAGGIVLTGSAAAKSTRGEVLAVGNGRILENGEVKPLDVKVGDIVIFNDGYGVKSEKIDNEEVLIMSESDILAIVEA
notes: GroES of Escherichia coli MG1655; synthetic construct based on the GroES gene, in a pET-15b vector; source: E. coli BL21, purified (Source Q15 anion exchange, Superdex 200 gel filtration)
The stoichiometry N is a count of units in the complex or per binding partner. B1: the “stoichiometry N” value with GroEL was determined as 2. Further, the binding result in data set [1] is “binds”.
